This experiment concerns the target T1, 6his-SEPT9 (human, UniProt Q9UHD8 2-586).
T1 construct: SEPT9, human, PCR amplified from the GFP-SEPT9_i1 plasmid; the forward primer starts at the second codon (aag aag tct tac tca gga gg), the reverse primer holds the stop codon; also called 6his tagged SEPT9; 6his-tagged SEPT9; source: E. coli, purified (IMAC, approx. 70 % purity; desalted into PBS); not shown: His6, N-terminal, kept
T1 sequence (looked up): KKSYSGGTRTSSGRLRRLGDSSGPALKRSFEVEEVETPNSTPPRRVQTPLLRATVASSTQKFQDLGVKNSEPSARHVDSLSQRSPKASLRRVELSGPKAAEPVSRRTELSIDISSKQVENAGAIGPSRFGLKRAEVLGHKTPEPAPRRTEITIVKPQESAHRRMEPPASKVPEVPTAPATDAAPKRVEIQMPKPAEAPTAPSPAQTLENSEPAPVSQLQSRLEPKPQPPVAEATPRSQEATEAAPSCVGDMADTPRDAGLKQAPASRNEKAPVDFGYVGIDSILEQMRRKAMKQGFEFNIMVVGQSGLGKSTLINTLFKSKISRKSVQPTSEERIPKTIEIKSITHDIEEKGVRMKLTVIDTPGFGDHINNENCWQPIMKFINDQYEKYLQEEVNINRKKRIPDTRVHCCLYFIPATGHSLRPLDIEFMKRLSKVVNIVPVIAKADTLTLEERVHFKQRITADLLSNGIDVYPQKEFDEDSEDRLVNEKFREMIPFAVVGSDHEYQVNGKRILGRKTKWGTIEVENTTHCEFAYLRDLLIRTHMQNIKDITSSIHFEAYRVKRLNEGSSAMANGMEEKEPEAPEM
The experiment is described as follows: pull-down; GST fusions immobilised on Glutathione Sepharose from crude E. coli extract, incubated with 2 µM 6his-SEPT9 for 1 h in PBS; Western blot with anti-6his antibody; free GST as control. As to conditions: both partners purified. On the technique in general: In western blotting, separated proteins are transferred to a membrane and probed.

B1: GST-MYO6_(835-1294) (domain or fragment, UniProt Q9UM54 835-1294, looked up)
chain: PRIDGLVKVGTLKKRLDKFNEVVSVLKDGKPEMNKQIKNLEISIDTLMAKIKSTMMTQEQIQKEYDALVKSSEELLSALQKKKQQEEEAERLRRIQEEMEKERKRREEDEKRRRKEEEERRMKLEMEAKRKQEEEERKKREDDEKRIQAEVEAQLARQKEEESQQQAVLEQERRDRELALRIAQSEAELISDEAQADLALRRSLDSYPVSKNDGTRPKMTPEQMAKEMSEFLSRGPAVLATKAAAGTKKYDLSKWKYAELRDTINTSCDIELLAACREEFHRRLKVYHAWKSKNKKRNTETEQRAPKSVTDYDFAPFLNNSPQQNPAAQIPARQREIEMNRQQRFFRIPFIRPADQYKDPQSKKKGWWYAHFDGPWIARQMELHPDKPPILLVAGKDDMEMCELNLEETGLTRKRGAEILPRQFEEIWERCGGIQYLQNAIESRQARPTYATAMLQSLLK
notes: cloned in pGEX2T; also called C-terminal tail fragment of MYO6; source: E. coli, immobilised on Glutathione Sepharose from the crude extract; not shown: GST, N-terminal, kept
In the case of B1, the binding result is on record as “binds”.

B2: GST-MYO1C_(809-1063) (domain or fragment, human, UniProt O00159 809-1063, looked up)
chain: LDHVRTSFLLNLRRQLPQNVLDTSWPTPPPALREASELLRELCIKNMVWKYCRSISPEWKQQLQQKAVASEIFKGKKDNYPQSVPRLFISTRLGTDEISPRVLQALGSEPIQYAVPVVKYDRKGYKPRSRQLLLTPNAVVIVEDAKVKQRIDYANLTGISVSSLSDSLFVLHVQRADNKQKGDVVLQSDHVIETLTKTALSANRVNSININQGSITFAGGPGRDGTIDFTPGSELLITKAKNGHLAVVAPRLNSR
notes: MYO1C, C-terminal tail fragment, amino acids 809-1063, amplified from cDNA of human 1306 fibroblast mRNA; cloned in pGEX2T; also called C-terminal tail fragment of MYO1C; source: E. coli, immobilised on Glutathione Sepharose from the crude extract; not shown: GST, N-terminal, kept
As for B2, the binding result is reported as “binds”.

The values are drawn from doi:10.1101/395996, “An interaction network of the human SEPT9 established by quantitative mass spectrometry reveals an interplay with myosin motors” (bioRxiv, 2018).
